Patent US8026218 (UNIVERSITY OF ARIZONA, dated 2011)
Bridge positions count the residues as written; N and C are the ends. Square brackets hold non-standard residues; d marks the D form. Ends that are not written are not given here. * marks the point of attachment. NMe‑Bn(CF3)2 = C-terminal N-methyl bis(trifluoromethyl)benzyl amide; NMeBn(CF3)2 = C-terminal N-methyl bis(trifluoromethyl)benzyl amide; NH(3,5-(CF3)2-benzyl) = FC(F)(F)c1cc(CN*)cc(C(F)(F)F)c1; OBzl(3,5-(CF3)2) = FC(F)(F)c1cc(CO*)cc(C(F)(F)F)c1; OBn(OMe)2 = C-terminal OBn(OMe)2 ester; OBn(CF3)2 = C-terminal Bn(CF3)2 ester; NMe(benzyl) = CN(Cc1ccccc1)*; Aib = CC(C)(N)C(=O)O; NHBn = c1ccc(CN*)cc1; OBn = c1ccc(CO*)cc1

What was measured:
[1] = biological target: T1, human NK1 receptor (human, UniProt P25103 1-407); assay: radioligand competition vs [3H]substance P, membranes of hNK1 CHO cells
T1 construct: whole, on cells; Used as membrane preparations of transfected CHO cells; also called hNK1; human neurokinin-1 receptor

[2] = biological target: T2, human δ opioid receptor (human, UniProt P41143 1-372); assay: radioligand competition vs [3H]DPDPE, membranes of hDOR cells
T2 construct: whole, on cells; Used as crude membrane preparations of the transfected cells; also called hDOR; DOR

[3] = biological target: T2, human δ opioid receptor; assay: cell-based or functional assay
[4] = biological target: T3, rat NK1 receptor (rat, UniProt P14600 1-407); assay: radioligand competition vs [3H]substance P, membranes of rNK1 CHO cells
T3 construct: whole, on cells; Used as membrane preparations of transfected CHO cells; also called rNK1; rat neurokinin-1 receptor

[5] = biological target: guinea pig NK1 receptor (guinea pig, UniProt P30547 1-407); assay: cell-based or functional assay
[6] = biological target: rat µ opioid receptor (rat, UniProt P33535 1-398); assay: cell-based or functional assay
[7] = biological target: µ opioid receptor of the guinea pig isolated ileum (guinea pig, UniProt P97266 1-98); assay: cell-based or functional assay
µ opioid receptor of the guinea pig isolated ileum, sequence (P97266 whole entry): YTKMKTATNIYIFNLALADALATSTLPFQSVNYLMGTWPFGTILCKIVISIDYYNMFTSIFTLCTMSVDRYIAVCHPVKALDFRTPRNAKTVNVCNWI

T1 sequence (P25103 whole entry): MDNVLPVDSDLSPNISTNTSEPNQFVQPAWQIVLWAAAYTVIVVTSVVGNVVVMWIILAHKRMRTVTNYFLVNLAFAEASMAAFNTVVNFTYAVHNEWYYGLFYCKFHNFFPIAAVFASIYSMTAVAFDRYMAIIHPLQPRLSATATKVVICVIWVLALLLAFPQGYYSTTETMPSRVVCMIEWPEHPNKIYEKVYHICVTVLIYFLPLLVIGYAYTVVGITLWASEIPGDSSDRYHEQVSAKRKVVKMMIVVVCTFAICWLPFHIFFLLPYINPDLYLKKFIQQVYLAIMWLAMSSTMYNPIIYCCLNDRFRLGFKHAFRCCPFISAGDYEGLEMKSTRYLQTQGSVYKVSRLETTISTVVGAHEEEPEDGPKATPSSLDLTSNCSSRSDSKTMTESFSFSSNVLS
T2 sequence (P41143 whole entry, stated change not applied): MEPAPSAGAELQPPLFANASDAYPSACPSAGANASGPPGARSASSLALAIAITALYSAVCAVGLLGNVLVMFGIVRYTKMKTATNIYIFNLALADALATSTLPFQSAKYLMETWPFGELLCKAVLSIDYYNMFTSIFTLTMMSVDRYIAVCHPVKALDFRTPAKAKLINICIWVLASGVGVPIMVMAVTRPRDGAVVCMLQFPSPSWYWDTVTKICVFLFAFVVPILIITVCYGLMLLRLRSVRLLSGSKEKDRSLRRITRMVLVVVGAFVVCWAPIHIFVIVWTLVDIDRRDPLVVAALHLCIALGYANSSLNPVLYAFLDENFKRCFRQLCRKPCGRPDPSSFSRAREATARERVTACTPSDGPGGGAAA
rat µ opioid receptor, sequence (P33535 whole entry): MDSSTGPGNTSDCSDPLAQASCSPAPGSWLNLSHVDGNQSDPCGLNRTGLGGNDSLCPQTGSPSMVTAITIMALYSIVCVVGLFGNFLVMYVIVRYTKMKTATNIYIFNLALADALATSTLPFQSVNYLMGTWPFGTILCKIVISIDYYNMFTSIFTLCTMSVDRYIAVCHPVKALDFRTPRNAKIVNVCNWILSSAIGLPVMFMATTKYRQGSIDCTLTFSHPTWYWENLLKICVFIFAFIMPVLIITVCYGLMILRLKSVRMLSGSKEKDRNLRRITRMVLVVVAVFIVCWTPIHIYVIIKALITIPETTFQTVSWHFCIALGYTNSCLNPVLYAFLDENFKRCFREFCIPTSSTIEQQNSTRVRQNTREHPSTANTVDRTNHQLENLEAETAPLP
T3 sequence (P14600 whole entry): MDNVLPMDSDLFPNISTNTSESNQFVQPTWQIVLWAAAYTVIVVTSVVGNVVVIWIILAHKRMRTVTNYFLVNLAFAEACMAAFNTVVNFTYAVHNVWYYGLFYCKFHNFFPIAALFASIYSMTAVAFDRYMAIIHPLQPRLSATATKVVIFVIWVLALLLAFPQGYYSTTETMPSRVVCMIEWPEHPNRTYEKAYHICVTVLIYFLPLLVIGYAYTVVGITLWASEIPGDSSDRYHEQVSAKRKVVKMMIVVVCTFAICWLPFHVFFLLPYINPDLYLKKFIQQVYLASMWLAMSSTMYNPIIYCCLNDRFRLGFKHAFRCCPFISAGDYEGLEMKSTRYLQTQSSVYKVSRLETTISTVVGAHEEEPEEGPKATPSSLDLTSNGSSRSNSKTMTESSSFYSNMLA
guinea pig NK1 receptor, sequence (P30547 whole entry): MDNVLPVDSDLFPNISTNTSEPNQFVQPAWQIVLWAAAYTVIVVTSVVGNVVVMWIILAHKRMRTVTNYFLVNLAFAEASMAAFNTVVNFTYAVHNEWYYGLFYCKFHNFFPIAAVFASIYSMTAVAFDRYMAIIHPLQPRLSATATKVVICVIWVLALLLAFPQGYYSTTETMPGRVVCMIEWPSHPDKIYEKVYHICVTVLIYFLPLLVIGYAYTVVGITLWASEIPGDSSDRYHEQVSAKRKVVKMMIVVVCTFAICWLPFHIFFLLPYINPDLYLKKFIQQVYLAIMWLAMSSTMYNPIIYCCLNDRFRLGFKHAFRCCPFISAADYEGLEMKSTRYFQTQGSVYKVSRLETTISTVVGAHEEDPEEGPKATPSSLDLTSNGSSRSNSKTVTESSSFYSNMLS

B1: DmtDAlaGlyPheNleProLeuTrpNHBn-3-(CF3) (TY053) (peptide)
peptide: YAGFXPLW
modifications: Dmt at 1; D-Ala at 2; Nle at 5 (X); C-terminal NH-Bn-3-(CF3) amide
Ki [1]: 1.04 nM
Ki [2]: 4.1 nM

B2: TyrDAlaGlyPheMetProLeuTrpNMeBn (TY026) (peptide)
peptide: Y[dA]GFMPLW-{NMe(benzyl)}
GTP binding hDOR EC50 [3]: 8.9 nM
GTP binding hDOR Emax [3]: 93%
Ki [4]: 44.5 nM
Ki [2]: 0.32 nM

B3: TyrDAlaGlyPheProLeuTrpOBn(CF3)2 (TY001) (peptide)
peptide: Y[dA]GFPLW-{OBzl(3,5-(CF3)2)}
Ki [1]: 0.0023 nM

B4: TyrDAlaGlyPheProLeuTrpNMeBn(CF3)2 (TY013) (peptide)
peptide: Y[dA]GFPLW-{NMe‑Bn(CF3)2}
Ki [4]: 6.05 nM

B5: TyrDAlaGlyPheMetProLeuTrpOBn(OMe)2 (TY030) (peptide)
peptide: Y[dA]GFMPLW-{OBn(OMe)2}
GPI/LMMP SP antagonist Ke [5]: 4.1 nM
GTP binding hDOR EC50 [3]: 0.8 nM
GTP binding hDOR Emax [3]: 61%
Ki [4]: 9.53 nM
Ki [2]: 0.93 nM

B6: TyrDAlaGlyPheMetNH2 (TY040) (peptide)
peptide: Y[dA]GFM-NH2
Ki [1]: 145 nM
Ki [4]: 1100 nM

B7: TyrDAlaGlyPheMetAlaLeuTrpOBn(CF3)2 (TY020) (peptide)
peptide: Y[dA]GFMALW-{OBzl(3,5-(CF3)2)}
GTP binding rMOR Emax [6]: 51.4%
GTP binding hDOR Emax [3]: 26.4%

B8: TyrDAlaGlyPheMetProLeuTrpNMeBn(CF3)2 (TY028) (peptide)
peptide: Y[dA]GFMPLW-{NMeBn(CF3)2}
GPI/LMMP opioid(mu) agonist IC50 [7]: 971 nM
GTP binding hDOR EC50 [3]: 12.9 nM
GTP binding hDOR Emax [3]: 59%
Ki [4]: 2.01 nM
Ki [2]: 2.15 nM

B9: DmtDAlaGlyPheNleProLeuTrpNHBn(CF3)2 (TY050) (peptide)
peptide: YAGFXPLW
modifications: Dmt (2',6'-dimethyl-L-tyrosine) at 1; D-Ala at 2; Nle at 5 (X); C-terminal NH-3,5-Bn(CF3)2 amide
Ki [1]: 0.075 nM

B10: TyrDAlaGlyPheProLeuTrpNHBn(CF3)2 (TY012) (peptide)
peptide: Y[dA]GFPLW-{NH(3,5-(CF3)2-benzyl)}
Ki [1]: 0.61 nM
Ki [4]: 32.6 nM

B11: DmtDAlaGlyPheNleProLeuTrpNHBn-2,4-(OMe)2 (TY054) (peptide)
peptide: YAGFXPLW
modifications: not fully specified; Dmt at 1; D-Ala at 2; Nle at 5 (X); C-terminal NH-Bn-2,4-(OMe)2 amide
Ki [1]: 0.952 nM
Ki [2]: 0.15 nM

B12: TyrDAlaGlyPheMetDProLeuTrpOBn(CF3)2 (TY024) (peptide)
peptide: Y[dA]GFM[dP]LW-{OBzl(3,5-(CF3)2)}
GTP binding rMOR EC50 [6]: 123 nM
GTP binding rMOR Emax [6]: 28%
Ki [2]: 13.2 nM

B13: TyrDAlaGlyPheProLeuTrpNHBn (TY008) (peptide)
peptide: Y[dA]GFPLW-NHBn
Ki [1]: 14 nM
Ki [4]: 803 nM

B14: TyrDAlaGlyPheProLeuTrpNMeBn (TY010) (peptide)
peptide: Y[dA]GFPLW-{NMe(benzyl)}
Ki [1]: 100 nM
Ki [4]: 267 nM

B15: TyrDAlaGlyPheMetProLeuTrpOH (TY043) (peptide)
peptide: Y[dA]GFMPLW-OH
GPI/LMMP opioid(mu) agonist IC50 [7]: 272 nM
GTP binding hDOR EC50 [3]: 0.51 nM
GTP binding hDOR Emax [3]: 62%
Ki [4]: 9850 nM
Ki [2]: 1.1 nM

B16: TyrDAlaGlyPheMetProLeuTrpNHBn(CF3)2 (TY027) (peptide)
peptide: Y[dA]GFMPLW-{NH(3,5-(CF3)2-benzyl)}
GPI/LMMP opioid(mu) agonist IC50 [7]: 488 nM
GTP binding hDOR EC50 [3]: 8.6 nM
GTP binding hDOR Emax [3]: 58%
Ki [4]: 7.27 nM

B17: TyrDAlaGlyPheProLeuTrpOBn (TY011) (peptide)
peptide: Y[dA]GFPLW-OBn
Ki [4]: 659 nM

B18: TyrDAlaGlyPheMetAibLeuTrpOBn(CF3)2 (TY022) (peptide)
peptide: Y[dA]GFM[Aib]LW-{OBn(CF3)2}
GTP binding rMOR EC50 [6]: 100 nM
GTP binding rMOR Emax [6]: 32%
GTP binding hDOR Emax [3]: 28%

B19: DmtDAlaGlyPheNleProLeuTrpNMeBn(CF3)2 (TY052) (peptide)
peptide: YAGFXPLW
modifications: Dmt at 1; D-Ala at 2; Nle at 5 (X); C-terminal NMe-3,5-Bn(CF3)2 amide
Ki [1]: 0.21 nM
Ki [2]: 0.46 nM

B20: Tyr[DCysGlyPheDCys]ProLeuTrpNHBn(CF3)2 (TY037) (peptide)
peptide: Y[dC]GF[dC]PLW-{NH(3,5-(CF3)2-benzyl)}
modifications: disulfide 2-5
GPI/LMMP opioid(mu) agonist IC50 [7]: 284 nM
GPI/LMMP SP antagonist Ke [5]: 4.7 nM
